Laboratory results: patent US20070123465A1 (IPF PHARMACEUTICALS, published 2007)
Square brackets hold non-standard residues; d marks the D form. Ends that are not written are not given here. miniPEG = PEG spacer between peptide and cysteine; dTic = O=C(O)[C@H]1Cc2ccccc2CN1; NMeL = CN[C@@H](CC(C)C)C(=O)O

How the values were obtained:
[1] = target: T1, fusion peptide of HIV gp41 (HIV-1 strain NL4-3) (HIV-1 strain NL4-3); assay: cell-based or functional assay
[2] = target: T1, fusion peptide of HIV gp41 (HIV-1 …); assay: cell-based or functional assay; remark: listed apart in the source

| Binder | IC50 NL4-3 [nM], anti-HIV activity (infection of P4-CCR5 indicator cells, beta-galactosidase reporter) [1] | IC50, inhibition of HIV infection, HIV strain NL4-3 [2] |
| --- | --- | --- |
| [NMeL]EAIPCSIPPEFLFGKPFVF (also: homodimer via intermolecular disulfide between Cys6 of the two chains) [VIR-712] | 195 nM |  |
| LEAIPMSIPPEFLFGKPFVF-{miniPEG-Cys-NH2} (also: homodimer disulfide bonded through the C-terminal cysteine) [VIR-673] | 664 nM |  |
| LEAIPMCIPPEFLFGKPFVF (also: homodimer via intermolecular disulfide between Cys7 of the two chains) [VIR-577] | 3270 nM |  |
| [NMeL]EKIPCSIPPEFLFGKPFVF (also: homodimer via intermolecular disulfide between Cys6 of the two chains) [VIR-716] | 182 nM |  |
| [NMeL]EDIPCSIPPEFLFGKPFVF (also: homodimer via intermolecular disulfide between Cys6 of the two chains) [VIR-717] | 635 nM |  |
| LEAIPCSIPPEFLFGKPFVF (not fully specified) [VIRIP (virus inhibiting peptide)] |  | 15000 nM |
| LEAIPCGIP[dP]EV[dTic]FNKPFVF (also: homodimer via intermolecular disulfide Cys6-Cys6) [VIR-706] | 74 nM |  |
| LEKIPCSIP[dP]EVAFNKPFVF (also: homodimer via intermolecular disulfide Cys6-Cys6) [VIR-705] | 484 nM |  |
| LEAIPMSIPPEFLFGKPFVFKG (also: homodimer: C-termini linked to both amino groups of a C-terminal lysine core -K-G) [VIR-574] | 3080 nM |  |
